Target: human dimeric IgA2 anti-NIP, wild type (not stated | human | mouse)
Assay: rosetting assay

B1: streptococcal IgA-binding M protein Arp4 (M4) (natural protein)
chain: AEIKKPQADSAWNWPKEYNALLKENEELKVEREKYLSYADDKEKDPQYRALMGENQDLRKREGQYQDKIEELEKERKEKQERQEQLERQYQIEADKHYQEQQKKHQQEQQQLEAEKQKLAKDKQISDASRQGLSRDLEASRAAKKELEAEHQKLKEEKQISDASRQGLSRDLEASREAKKKVEADLAALTAEHQKLKEDKQISDASRQGLSRDLEASREAKKKVEADLAEANSKLQALEKLNKELEEGKKLSEKEKAELQARLEAEAKALKEQLAKQAEELAKLKGNQTPNAKVAPQANRSRSAMTQQKRTLPST
- percent inhibition of dIgA binding to hFcα/μR (rosettes, Arp4 at 100 μg/mL): 50%

Source: article PMC3118421
